Source: the supplement of paper PMC7877785
± gives the uncertainty stated by the source.

Assay: self-splicing fitness, log relative to wild type (ln ratio); higher = more splicing; Tetrahymena group I intron in knt gene, E. coli kanamycin selection, DiMSum; sequences stand for … in CUCUCU…GGAGGGAAAAGUUAUCAGGCAUGCACCUGGUAGCUAGUCUUUAAACCAAUAGAUUGCAUCGGUUUAAAAGGCAAGACCGUCAAAUUGCGGGAAAGGGGUCAACAGCCGUUCAGUACCAAGUCUCAGGGGAAACUUUGAGAUGGCCUUGCAAAGGGUAUGGUAAUAAGCUGACGGACAUGGUCCUAACCACGCAGCCAAGUCCUAAGUCAACAGAUCUUCUGUUGAUAUGGAUGCAGUUCACAGACUAAAUGUCGGUCGGGGAAGAUGUAUUCUUCUCAUAAGAUAUAGUCGGACCUCUCCUUAAUGGGAGCUAGCGGAUGAAGUGAUGCAACACUGGAGCCGCUGGGAACUAAUUUGUAUGCGAAAGUAUAUUGAUUAGUUUUGGAGUACUCGUGGUCG
Summary of the method: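 Pooled colonies went to amplicon sequencing on an Illumina HiSeq 2500 after six replicate transformations. The plates were LB agar with 100 μg/mL carbenicillin, 50 μM IPTG and 0.2% rhamnose, with or without 25 μg/mL kanamycin, incubated overnight at 37°C or 30°C. The E. coli BL21(DE3) library had all eight P1ex-region intron nucleotides randomised, the intron placed in the knt kanamycin-resistance gene on pET-22b(+). DiMSum fitness is the error-weighted combination of replicate fold changes, kanamycin against none, normalised to wild type.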

Sequence	self-splicing fitness (ln) (30 °C)	self-splicing fitness (ln) (37 °C)
UAUCAGCAAUAUUACGCCCG	-0.133 ± 0.098	-0.202 ± 0.13
AUCGAGCAAUAUUACGUCUG	-3.46 ± 0.34	-1.43 ± 0.19
UACCAGCAAUAUUACGUCUA	0.0647 ± 0.067	0.41 ± 0.086
UUUUAGCAAUAUUACGUGUA	-2.96 ± 0.27	-1.84 ± 0.17
AAUGAGCAAUAUUACGAUCG	-3.6 ± 0.32	-2.59 ± 0.24
GUCAAGCAAUAUUACGCUCA	-1.42 ± 0.11	-0.0833 ± 0.13
GGUAAGCAAUAUUACGUCAG	-3.79 ± 0.34	-2.52 ± 0.39
GCCGAGCAAUAUUACGUUAA	-3.34 ± 0.27	-1.78 ± 0.18
UCGGAGCAAUAUUACGACUG	-1.59 ± 0.31	0.217 ± 0.17
UGUUAGCAAUAUUACGUUCC	-2.47 ± 0.29	-2.03 ± 0.41
UACUAGCAAUAUUACGCCGG	-1.68 ± 0.18	-0.8 ± 0.17
UUAAAGCAAUAUUACGUCUG	0.0385 ± 0.075	0.255 ± 0.096
UACCAGCAAUAUUACGUCCC	-1.47 ± 0.35	-1.38 ± 0.38
CGUUAGCAAUAUUACGGCUU	-0.864 ± 0.16	-2.39 ± 0.31
AAUCAGCAAUAUUACGUCGU	-0.489 ± 0.054	0.414 ± 0.071
UGGCAGCAAUAUUACGUGUA	-1.54 ± 0.089	-0.712 ± 0.084
GCUGAGCAAUAUUACGCCGG	-1.99 ± 0.36	–
CCGAAGCAAUAUUACGCUCC	-2.86 ± 0.44	–
UAAUAGCAAUAUUACGAACA	-1.07 ± 0.14	-0.685 ± 0.13
AAGAAGCAAUAUUACGUGAA	-2.16 ± 0.1	-0.97 ± 0.091
UGCAAGCAAUAUUACGGGGA	-3.21 ± 0.33	-1.32 ± 0.15
CCUUAGCAAUAUUACGUCAG	-3.79 ± 0.35	-2.74 ± 0.31
AUGAAGCAAUAUUACGUAGG	-2.79 ± 0.16	-1.25 ± 0.18
CCAUAGCAAUAUUACGCCGU	-4.03 ± 0.34	-1.91 ± 0.35
UGUGAGCAAUAUUACGGGAU	-4.32 ± 0.41	-2.17 ± 0.38
CAGAAGCAAUAUUACGACUA	0.00435 ± 0.063	0.187 ± 0.081

Sequence	self-splicing fitness (ln) (30 °C)	self-splicing fitness (ln) (37 °C)
CCAGAGCAAUAUUACGGCGG	-3.72 ± 0.18	-1.92 ± 0.24
UGCUAGCAAUAUUACGCUGU	-3.58 ± 0.22	-2.38 ± 0.27
GCUCAGCAAUAUUACGUCCG	-1.49 ± 0.14	-1.13 ± 0.18
GGGCAGCAAUAUUACGGUGU	-2.02 ± 0.1	-1.21 ± 0.099
UGAGAGCAAUAUUACGUCCU	-3.05 ± 0.24	-2.57 ± 0.49
AAGUAGCAAUAUUACGAACC	-1.4 ± 0.36	-1.57 ± 0.25
GGUUAGCAAUAUUACGACAC	0.342 ± 0.2	-0.137 ± 0.24
GAUUAGCAAUAUUACGUUCA	-0.941 ± 0.084	-0.497 ± 0.088
CUACAGCAAUAUUACGACUG	-1.86 ± 0.087	-0.44 ± 0.1
AUCUAGCAAUAUUACGAACA	-1.53 ± 0.14	-0.645 ± 0.12
AAGAAGCAAUAUUACGCCGU	-1.1 ± 0.13	-0.777 ± 0.15
UAUCAGCAAUAUUACGGGUA	-1.2 ± 0.092	-0.623 ± 0.1
GAAGAGCAAUAUUACGUAGC	-2.27 ± 0.21	-2.31 ± 0.21
GAAGAGCAAUAUUACGAGGU	-4.02 ± 0.39	-3.52 ± 0.33
CAUGAGCAAUAUUACGAGGA	-2.72 ± 0.23	-2.62 ± 0.26
GAUUAGCAAUAUUACGCCGU	-1.61 ± 0.15	-0.986 ± 0.25
GUUAAGCAAUAUUACGAAUG	-2.32 ± 0.24	-1.59 ± 0.21
CCGUAGCAAUAUUACGUCUU	-4.01 ± 0.34	-2.96 ± 0.23
UAUGAGCAAUAUUACGGGCC	–	-3.14 ± 0.43
CGGAAGCAAUAUUACGGAUC	-3.97 ± 0.37	-2.04 ± 0.27
AUAUAGCAAUAUUACGUGUA	-2.27 ± 0.36	-2.01 ± 0.25
CGGAAGCAAUAUUACGGCCA	0.0398 ± 0.097	0.672 ± 0.16
CGCUAGCAAUAUUACGGGGA	-2.93 ± 0.32	-1.95 ± 0.32
CUGUAGCAAUAUUACGUCGU	-2.99 ± 0.31	-1.8 ± 0.28
GCCUAGCAAUAUUACGUCGG	-3.62 ± 0.19	-2.93 ± 0.21
GGUAAGCAAUAUUACGUGGC	-2.67 ± 0.15	-1.29 ± 0.16

Sequence	self-splicing fitness (ln) (30 °C)	self-splicing fitness (ln) (37 °C)
AACCAGCAAUAUUACGUAUA	-1.4 ± 0.072	-0.853 ± 0.088
GCCUAGCAAUAUUACGACGG	-3.6 ± 0.31	-2.37 ± 0.27
AUUGAGCAAUAUUACGAGGA	-1.8 ± 0.32	-2.41 ± 0.29
CGGUAGCAAUAUUACGUUCC	-4.16 ± 0.33	-1.9 ± 0.26
UCUUAGCAAUAUUACGUGAA	-1.9 ± 0.2	-2.82 ± 0.43
UCCGAGCAAUAUUACGAACG	-1.82 ± 0.37	-1.06 ± 0.22
GUGGAGCAAUAUUACGUAAA	-1.5 ± 0.21	-2.18 ± 0.47
CAGUAGCAAUAUUACGCUAU	-3.57 ± 0.23	-3.27 ± 0.32
UCGAAGCAAUAUUACGCCCG	-1.33 ± 0.16	-0.864 ± 0.17
AGCGAGCAAUAUUACGAAUA	-3.75 ± 0.46	-3.32 ± 0.37
AAUGAGCAAUAUUACGCUCA	-1.91 ± 0.42	-0.648 ± 0.38
AACGAGCAAUAUUACGAAGG	–	-2.3 ± 0.2
AACAAGCAAUAUUACGAGGU	-4.04 ± 0.21	-3.54 ± 0.17
ACGGAGCAAUAUUACGGGGC	-3.39 ± 0.35	-3.86 ± 0.46
UUACAGCAAUAUUACGAUUA	-0.238 ± 0.094	-0.0645 ± 0.089
UCACAGCAAUAUUACGUCGU	-3.62 ± 0.19	-1.49 ± 0.22
GGACAGCAAUAUUACGACCG	-0.447 ± 0.16	-0.054 ± 0.27
AUCAAGCAAUAUUACGCUUG	-4.23 ± 0.39	-2.6 ± 0.22
AGAUAGCAAUAUUACGUUCA	-0.78 ± 0.13	-0.5 ± 0.15
GUAGAGCAAUAUUACGCUAC	-2.54 ± 0.25	-2.15 ± 0.34
GCCGAGCAAUAUUACGACUG	-2.66 ± 0.23	-3.53 ± 0.42
UAACAGCAAUAUUACGAUAC	-2.65 ± 0.39	-2.7 ± 0.48
CGAAAGCAAUAUUACGUCUU	-2.8 ± 0.13	-1.87 ± 0.16
GAGAAGCAAUAUUACGCGAC	-2.78 ± 0.17	-1.38 ± 0.15
